Drawing on paper PMC3799859, this text covers screen value for one variant.

B1: ΔIRE1-V5/His (ER lumenal domain of human IRE1) [human] / FLAG-tagged full-length wild-type IRE1 [human] (parent)
chain 1: IFGSTSTVTLPETLLFVSTLDGSLHAVSKRTGSIKWTLKEDPVLQVPTHVEEPAFLPDPNDGSLYTLGSKNNEGLTKLPFTIPELVQASPCRSSDGILYMGKKQDIWYVIDLLTGEKQQTLSSAFADSLCPSTSLLYLGRTEYTITMYDTKTRELRWNATYFDYAASLPEDDVDYKMSHFVSNGDGLVVTVDSESGDVLWIQNYASPVVAFYVWQREGLRKVMHINVAVETLRYLTFMSGEVGRITKWKYPFPKETEAKSKLTPTLYVGKYSTSLYASPSMVHEGVAVVPRGSTLPLLEGPQTDGVTIGDKGECVITPSTDVKFDPGLKSKNKLNYLRNYWLLIGHHETPLSASTKMLERFPNNLPKHRENVIPADSEKKSFEEVINLVDQTSENAPTTVSRDVEEKPAHAPARPEAPVDSMLKDMATIILSTFLLIGWVAFIITYPLSMHQQQQLQHQQFQKELEKIQLLQQQQQQLPFHPPGDTAQDGELLDTSGPYSESSGTSSPSTSPRASNHSLCSGSSASKAGSSPSLEQDDGDEETSVVIVGKISFCPKDVLGHGAEGTIVYRGMFDNRDVAVKRILPECFSFADREVQLLRESDEHPNVIRYFCTEKDRQFQYIAIELCAATLQEYVEQKDFAHLGLEPITLLQQTTSGLAHLHSLNIVHRDLKPHNILISMPNAHGKIKAMISDFGLCKKLAVGRHSFSRRSGVPGTEGWIAPEMLSEDCKENPTYTVDIFSAGCVFYYVISEGSHPFGKSLQRQANILLGACSLDCLHPEKHEDVIARELIEKMIAMDPQKRPSAKHVLKHPFFWSLEKQLQFFQDVSDRIEKESLDGPIVKQLERGGRAVVKMDWRENITVPLQTDLRKFRTYKGGSVRDLLRAMRNKKHHYRELPAEVRETLGSLPDDFVCYFTSRFPHLLAHTYRAMELCSHERLFQPYYFHEPPEPQPPVTPDAL
chain 2: IFGSTSTVTLPETLLFVSTLDGSLHAVSKRTGSIKWTLKEDPVLQVPTHVEEPAFLPDPNDGSLYTLGSKNNEGLTKLPFTIPELVQASPCRSSDGILYMGKKQDIWYVIDLLTGEKQQTLSSAFADSLCPSTSLLYLGRTEYTITMYDTKTRELRWNATYFDYAASLPEDDVDYKMSHFVSNGDGLVVTVDSESGDVLWIQNYASPVVAFYVWQREGLRKVMHINVAVETLRYLTFMSGEVGRITKWKYPFPKETEAKSKLTPTLYVGKYSTSLYASPSMVHEGVAVVPRGSTLPLLEGPQTDGVTIGDKGECVITPSTDVKFDPGLKSKNKLNYLRNYWLLIGHHETPLSASTKMLERFPNNLPKHRENVIPADSEKKSFEEVINLVDQTSENAPTTVSRDVEEKPAHAPARPEAPVDSMLKD

In the test the parent is B1. Put plainly: co-immunoprecipitation (IP: V5, Western blot for FLAG, quantified). The settings on record: with FLAG-tagged full-length wild-type IRE1 [human]; with Sig-1R overexpression; non-stressed cells; n = 4; read off a plot. (Immunoblotting shows a protein as a band on a membrane.)
chain 2 D105P: the screen value is 58%.
